From patent US20140348865A1, “[…] ON AN HIV-1 V1V2 SITE-OF-VULNERABILITY” (The United States of America, as represented by the …, priority 2011, published 2014)

Assays:
[1] = biological target: Env of HIV-1 strain 6631 (pseudovirus) (HIV-1)
[2] = biological target: Env of HIV-1 strain 3873 (pseudovirus) (HIV-1)
[3] = biological target: Env of HIV-1 strain 6322 (pseudovirus) (HIV-1)
[4] = biological target: Env of HIV-1 strain 6471 (pseudovirus) (HIV-1)
[5] = biological target: Env of HIV-1 strain 6631 (pseudovirus) (HIV-1); remark: listed apart in the source
[6] = biological target: Env of HIV-1 strain CNE30 (pseudovirus) (HIV-1)
[7] = biological target: Env of HIV-1 strain ZM135 (pseudovirus) (HIV-1)
epitope-scaffold 2ZJR_B = test: ELISA, antibody dilution series on the scaffold

Substance: monoclonal antibody PG16
- neutralization IC50 (0077_V1.C16): < 0.023 µg/mL
- neutralization IC50 (3168.V4.C10): 0.037 µg/mL
- neutralization IC50 (3637.V5.C3): > 50 µg/mL
- neutralization IC50 (6644.V2.C33): 35.3 µg/mL
- neutralization IC50 (96ZM651.02): > 50 µg/mL
- neutralization IC50 (BR025.9): 0.009 µg/mL
- neutralization IC50 (CAP210.E8): < 0.023 µg/mL
- neutralization IC50 (CH038.12): 49 µg/mL
- neutralization IC50 (CH070.1): 0.002 µg/mL
- neutralization IC50 (CH181.12): 0.002 µg/mL
- neutralization IC50 (CNE31): 2.51 µg/mL
- neutralization IC50 (CNE40): 49 µg/mL
- neutralization IC50 (CNE57): > 50 µg/mL
- neutralization IC50 (DU156.12): < 0.023 µg/mL
- neutralization IC50 (DU422.01): < 0.023 µg/mL
- neutralization IC50 [1]: > 50 µg/mL
- neutralization IC50 (TV1.29): 0.002 µg/mL
- neutralization IC50 (TZA125.17): 0.024 µg/mL
- neutralization IC50 (TZBD.02): 0.025 µg/mL
- neutralization IC50 (ZM146.7): 0.767 µg/mL
- neutralization IC50 (3817.v2.c59): 0.006 µg/mL
- neutralization IC50 (ZM215.8): > 50 µg/mL
- neutralization IC50 (ZM233.6): < 0.023 µg/mL
- neutralization IC80 (0077_V1_C16 (HIV-1)): 0.075 µg/mL
- neutralization IC80 (3168.V4.C10 (HIV-1)): 0.515 µg/mL
- neutralization IC80 (3637.V5.C3 (HIV-1)): > 50 µg/mL
- neutralization IC80 (6644.V2.C33 (HIV-1)): > 50 µg/mL
- neutralization IC80 (6785.V5.C14 (HIV-1)): < 0.023 µg/mL
- neutralization IC80 (96ZM651_02 (HIV-1)): > 50 µg/mL
- neutralization IC80 (BR025.9 (HIV-1)): 0.049 µg/mL
- neutralization IC80 (CAP210.E8 (HIV-1)): 0.882 µg/mL
- neutralization IC80 (CAP244.D3 (HIV-1)): 0.058 µg/mL
- neutralization IC80 (CAP45.G3 (HIV-1)): < 0.023 µg/mL
- neutralization IC80 (CH117.4 (HIV-1)): 0.028 µg/mL
- neutralization IC80 (CH181.12 (HIV-1)): 0.01 µg/mL
- neutralization IC80 (CNE15 (HIV-1)): < 0.023 µg/mL
- neutralization IC80 (CNE31 (HIV-1)): > 50 µg/mL
- neutralization IC80 (CNE40 (HIV-1)): > 50 µg/mL
- neutralization IC80 (CNE53 (HIV-1)): > 50 µg/mL
- neutralization IC80 (CNE58 (HIV-1)): < 0.023 µg/mL
- neutralization IC80 (CNE7 (HIV-1)): 1.91 µg/mL
- neutralization IC80 (DU123.06 (HIV-1)): 0.163 µg/mL
- neutralization IC80 (DU151.02 (HIV-1)): < 0.023 µg/mL
- neutralization IC80 (DU156.12 (HIV-1)): < 0.023 µg/mL
- neutralization IC80 (DU172.17 (HIV-1)): 0.134 µg/mL
- neutralization IC80 (DU422.01 (HIV-1)): 49.9 µg/mL
- neutralization IC80 [2]: > 50 µg/mL
- neutralization IC80 [3]: > 50 µg/mL
- neutralization IC80 [4]: > 50 µg/mL
- neutralization IC80 [5]: > 50 µg/mL
- neutralization IC80 [6]: > 50 µg/mL
- neutralization IC80 [7]: > 50 µg/mL
- neutralization IC80 (MW965.26 (HIV-1)): > 50 µg/mL
- neutralization IC80 (SO18.18 (HIV-1)): 0.136 µg/mL
- neutralization IC80 (TV1.29 (HIV-1)): 0.15 µg/mL
- neutralization IC80 (TZA125.17 (HIV-1)): 0.719 µg/mL
- neutralization IC80 (TZBD.02 (HIV-1)): 0.175 µg/mL
- neutralization IC80 (ZA012.29 (HIV-1)): > 50 µg/mL
- neutralization IC80 (ZM106.9 (HIV-1)): > 50 µg/mL
- neutralization IC80 (ZM109.4 (HIV-1)): > 50 µg/mL
- neutralization IC80 (ZM146.7 (HIV-1)): > 50 µg/mL
- neutralization IC80 (ZM176.66 (HIV-1)): 0.01 µg/mL
- neutralization IC80 (ZM197.7 (HIV-1)): 6.67 µg/mL
- neutralization IC80 (ZM214.15 (HIV-1)): > 50 µg/mL
- neutralization IC80 (ZM215.8 (HIV-1)): > 50 µg/mL
- EC50 (read off the curve) (epitope-scaffold 2ZJR_B): 1 µg/mL

Substance: monoclonal antibody PG9
- neutralization IC50 (0077_V1.C16): 0.091 µg/mL
- neutralization IC50 (3168.V4.C10): 0.162 µg/mL
- neutralization IC50 (3637.V5.C3): > 50 µg/mL
- neutralization IC50 (6644.V2.C33): 0.033 µg/mL
- neutralization IC50 (96ZM651.02): > 50 µg/mL
- neutralization IC50 (BR025.9): 0.044 µg/mL
- neutralization IC50 (CAP210.E8): 0.087 µg/mL
- neutralization IC50 (CH038.12): 0.5 µg/mL
- neutralization IC50 (CH070.1): 0.006 µg/mL
- neutralization IC50 (CH181.12): 0.008 µg/mL
- neutralization IC50 (CNE31): 13.5 µg/mL
- neutralization IC50 (CNE40): 1.16 µg/mL
- neutralization IC50 (CNE57): > 50 µg/mL
- neutralization IC50 (DU156.12): < 0.023 µg/mL
- neutralization IC50 (DU422.01): 0.303 µg/mL
- neutralization IC50 [1]: > 50 µg/mL
- neutralization IC50 (TV1.29): 0.008 µg/mL
- neutralization IC50 (TZA125.17): 0.231 µg/mL
- neutralization IC50 (TZBD.02): 0.266 µg/mL
- neutralization IC50 (ZM146.7): 0.635 µg/mL
- neutralization IC50 (3817.v2.c59): 0.007 µg/mL
- neutralization IC50 (ZM215.8): < 0.023 µg/mL
- neutralization IC50 (ZM233.6): < 0.023 µg/mL
- neutralization IC80 (0077_V1_C16 (HIV-1)): 0.343 µg/mL
- neutralization IC80 (3168.V4.C10 (HIV-1)): 0.657 µg/mL
- neutralization IC80 (3637.V5.C3 (HIV-1)): > 50 µg/mL
- neutralization IC80 (6644.V2.C33 (HIV-1)): 0.12 µg/mL
- neutralization IC80 (6785.V5.C14 (HIV-1)): 0.094 µg/mL
- neutralization IC80 (96ZM651_02 (HIV-1)): > 50 µg/mL
- neutralization IC80 (BR025.9 (HIV-1)): 0.215 µg/mL
- neutralization IC80 (CAP210.E8 (HIV-1)): 0.501 µg/mL
- neutralization IC80 (CAP244.D3 (HIV-1)): 0.362 µg/mL
- neutralization IC80 (CAP45.G3 (HIV-1)): < 0.023 µg/mL
- neutralization IC80 (CH117.4 (HIV-1)): 0.03 µg/mL
- neutralization IC80 (CH181.12 (HIV-1)): 0.04 µg/mL
- neutralization IC80 (CNE15 (HIV-1)): < 0.023 µg/mL
- neutralization IC80 (CNE31 (HIV-1)): > 50 µg/mL
- neutralization IC80 (CNE40 (HIV-1)): 20 µg/mL
- neutralization IC80 (CNE53 (HIV-1)): 0.809 µg/mL
- neutralization IC80 (CNE58 (HIV-1)): 0.068 µg/mL
- neutralization IC80 (CNE7 (HIV-1)): 4.5 µg/mL
- neutralization IC80 (DU123.06 (HIV-1)): 0.477 µg/mL
- neutralization IC80 (DU151.02 (HIV-1)): 0.057 µg/mL
- neutralization IC80 (DU156.12 (HIV-1)): 0.143 µg/mL
- neutralization IC80 (DU172.17 (HIV-1)): 0.899 µg/mL
- neutralization IC80 (DU422.01 (HIV-1)): 15.8 µg/mL
- neutralization IC80 [2]: > 50 µg/mL
- neutralization IC80 [3]: > 50 µg/mL
- neutralization IC80 [4]: > 50 µg/mL
- neutralization IC80 [5]: > 50 µg/mL
- neutralization IC80 [6]: > 50 µg/mL
- neutralization IC80 [7]: > 50 µg/mL
- neutralization IC80 (MW965.26 (HIV-1)): 49.9 µg/mL
- neutralization IC80 (SO18.18 (HIV-1)): 0.227 µg/mL
- neutralization IC80 (TV1.29 (HIV-1)): 0.044 µg/mL
- neutralization IC80 (TZA125.17 (HIV-1)): 1.21 µg/mL
- neutralization IC80 (TZBD.02 (HIV-1)): 1.3 µg/mL
- neutralization IC80 (ZA012.29 (HIV-1)): > 50 µg/mL
- neutralization IC80 (ZM106.9 (HIV-1)): 6.58 µg/mL
- neutralization IC80 (ZM109.4 (HIV-1)): 2.64 µg/mL
- neutralization IC80 (ZM146.7 (HIV-1)): 6.78 µg/mL
- neutralization IC80 (ZM176.66 (HIV-1)): 0.05 µg/mL
- neutralization IC80 (ZM197.7 (HIV-1)): 1.92 µg/mL
- neutralization IC80 (ZM214.15 (HIV-1)): > 50 µg/mL
- neutralization IC80 (ZM215.8 (HIV-1)): 0.228 µg/mL
- EC50 (read off the curve) (epitope-scaffold 2ZJR_B): 0.1 µg/mL
